Assay [1] has as its target ThiS-YbeA-ssrA (Archaeoglobus fulgidus | Escherichia coli | not stated). In words: SEC; analytical SEC on an S200 10/300 GL column, 0.5-1 mL/min, molecular mass from Kav against a calibration curve of low molecular weight standards. (SEC sorts molecules by how far they enter the pores of the column.)
Assay [2] addresses ClpXP (ClpXΔN6 with ClpP14) (Escherichia coli | E. coli) (UniProt P0A6H1).
Assay [3] concerns the target YbeA-ssrA (Escherichia coli | not stated). In words: SEC; analytical SEC on an S200 10/300 GL column, 0.5-1 mL/min, molecular mass from Kav against a calibration curve of low molecular weight standards.

The substance ThiS-YbeA-ssrA registered a stoichiometry N in assay [1] of 2.

Substance UCH-L1-ssrA (enzyme) showed a degradation of PR65/A-ssrA by ClpXP in competition with equimolar UCH-L1-ssrA (5 µM each), SDS-PAGE and densitometry in assay [2] of 2 fold.

Substance YbeA-ssrA (enzyme) gave a stoichiometry N in assay [3] of 2.

For orientation: stoichiometry N means a count of units in the complex or per binding partner.

Source of the values: article PMC6382783.
